Source: PMC4944209 (Journal of structural biology, 2016)

Biological target: the molecule itself
Test: cryo-EM structure

B1: OmpF, β-barrel channel protein from the outer membrane of E. coli (natural protein, UniProt P02931 23-362, looked up)
chain: AEIYNKDGNKVDLYGKAVGLHYFSKGNGENSYGGNGDMTYARLGFKGETQINSDLTGYGQWEYNFQGNNSEGADAQTGNKTRLAFAGLKYADVGSFDYGRNYGVVYDALGYTDMLPEFGGDTAYSDDFFVGRVGGVATYRNSNFFGLVDGLNFAVQYLGKNERDTARRSNGDGVGGSISYEYEGFGIVGAYGAADRTNLQEAQPLGNGKKAEQWATGLKYDANNIYLAANYGETRNATPITNKFTNTSGFANKTQDVLLVAQYQFDFGLRPSIAYTKSKAKDVEGIGDVDLVNYFEVGATYYFNKNMSTYVDYIINQIDSDNKLGVGSDDTVAVGIVYQF
stoichiometry N: 3
